Results reported in paper PMC9482650, “Quantitative fragmentomics allow affinity mapping of interactomes” (Nature Communications, 2022).

T1: NHERF3_3, Q5T2W1
T1 sequence (Q5T2W1 238-333, limits assumed, looked up): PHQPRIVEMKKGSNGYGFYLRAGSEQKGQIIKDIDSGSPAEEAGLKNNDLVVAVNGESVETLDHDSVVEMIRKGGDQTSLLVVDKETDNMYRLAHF

T2: PDZD2_2, O15018
T2 sequence (O15018 329-429, limits assumed, looked up): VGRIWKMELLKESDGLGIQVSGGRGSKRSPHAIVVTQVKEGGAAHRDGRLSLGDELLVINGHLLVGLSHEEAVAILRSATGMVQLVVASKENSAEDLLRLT

T3: SIPA1L2, Q9P2F8
T3 sequence (Q9P2F8 945-1036, limits assumed, looked up): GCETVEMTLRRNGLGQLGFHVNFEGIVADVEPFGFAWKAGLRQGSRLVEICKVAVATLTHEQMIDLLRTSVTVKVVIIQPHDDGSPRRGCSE

T4: HTRA4, P83105
T4 sequence (P83105 378-476, limits assumed, looked up): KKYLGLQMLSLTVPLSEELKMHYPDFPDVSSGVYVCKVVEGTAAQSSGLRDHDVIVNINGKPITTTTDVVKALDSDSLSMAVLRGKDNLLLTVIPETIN

T5: CARD11, Q9BXL7
T5 sequence (Q9BXL7 662-765, limits assumed, looked up): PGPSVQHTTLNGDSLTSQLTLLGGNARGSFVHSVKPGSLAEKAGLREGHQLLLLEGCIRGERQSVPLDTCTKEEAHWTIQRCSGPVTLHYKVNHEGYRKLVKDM

T6: TJP3_3, O95049
T6 sequence (O95049 375-456, limits assumed, looked up): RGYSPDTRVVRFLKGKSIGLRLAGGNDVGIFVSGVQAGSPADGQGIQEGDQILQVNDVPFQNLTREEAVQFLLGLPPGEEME

T7: NHERF3_4, Q5T2W1
T7 sequence (Q5T2W1 373-468, limits assumed, looked up): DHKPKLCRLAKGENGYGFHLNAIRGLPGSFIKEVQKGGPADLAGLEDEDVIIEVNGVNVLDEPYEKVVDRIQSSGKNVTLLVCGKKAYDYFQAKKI

T8: SNTA1, Q13424
T8 sequence (Q13424 82-180, limits assumed, looked up): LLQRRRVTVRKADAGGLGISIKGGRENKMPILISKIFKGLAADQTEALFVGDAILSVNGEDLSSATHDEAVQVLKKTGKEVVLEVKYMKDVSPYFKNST

T9: GRIP1_2, Q9Y3R0
T9 sequence (Q9Y3R0 145-248, limits assumed, looked up): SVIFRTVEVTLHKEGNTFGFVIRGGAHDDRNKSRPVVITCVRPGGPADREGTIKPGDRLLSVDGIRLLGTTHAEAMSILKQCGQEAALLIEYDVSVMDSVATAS

T10: SNTG1, Q9NSN8
T10 sequence (Q9NSN8 52-150, limits assumed, looked up): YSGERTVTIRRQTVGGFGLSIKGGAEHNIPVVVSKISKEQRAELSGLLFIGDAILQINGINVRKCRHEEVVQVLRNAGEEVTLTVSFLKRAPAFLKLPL


Tests used:
Assay in all cases: holdup assay
Set-up in all cases: key: below the threshold = too weak to quantify, mostly under pKd 3.1 to 4
Conditions in all cases: plain residues with an end cap or a label only (N-terminal biotin on a linker: ado-ado)
MAGI2_5, Q86UL8 = target: MAGI2_5, Q86UL8
Chain of MAGI2_5, Q86UL8 (Q86UL8 915-1017): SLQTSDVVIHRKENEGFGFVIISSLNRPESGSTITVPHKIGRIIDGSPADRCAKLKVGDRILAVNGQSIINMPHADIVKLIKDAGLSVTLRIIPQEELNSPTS

NHERF3_3, Q5T2W1 = target: T1, NHERF3_3, Q5T2W1
PDZD2_2, O15018 = target: T2, PDZD2_2, O15018
SIPA1L2, Q9P2F8 = target: T3, SIPA1L2, Q9P2F8
GOPC, Q9HD26 = target: GOPC, Q9HD26
HTRA1, Q92743 = target: HTRA1, Q92743
Chain of HTRA1, Q92743 (Q92743 360-477): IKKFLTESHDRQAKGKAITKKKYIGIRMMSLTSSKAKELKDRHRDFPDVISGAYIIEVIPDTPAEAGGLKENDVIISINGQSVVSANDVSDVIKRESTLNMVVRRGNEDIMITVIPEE

MAST1, Q9Y2H9 = target: MAST1, Q9Y2H9
Chain of MAST1, Q9Y2H9 (Q9Y2H9 962-1065): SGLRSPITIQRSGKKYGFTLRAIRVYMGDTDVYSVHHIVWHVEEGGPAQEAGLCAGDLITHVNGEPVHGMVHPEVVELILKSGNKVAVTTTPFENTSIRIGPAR

CASK, O14936 = target: CASK, O14936
Chain of CASK, O14936 (O14936 487-570): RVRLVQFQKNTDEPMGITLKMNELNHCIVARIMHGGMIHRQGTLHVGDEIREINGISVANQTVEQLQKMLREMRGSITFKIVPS

PTPN3, P26045 = target: PTPN3, P26045
Chain of PTPN3, P26045 (P26045 505-587): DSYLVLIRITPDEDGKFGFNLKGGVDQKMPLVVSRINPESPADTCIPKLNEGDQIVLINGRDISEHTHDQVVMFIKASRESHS

Inadl_6, Q8NI35 = target: Inadl_6, Q8NI35
Chain of Inadl_6, Q8NI35 (Q8NI35 1058-1167): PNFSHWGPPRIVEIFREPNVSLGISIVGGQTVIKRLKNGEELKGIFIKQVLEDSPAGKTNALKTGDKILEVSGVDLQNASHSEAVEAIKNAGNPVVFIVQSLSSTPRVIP

PICK1, Q9NRD5 = target: PICK1, Q9NRD5
Chain of PICK1, Q9NRD5 (Q9NRD5 17-115): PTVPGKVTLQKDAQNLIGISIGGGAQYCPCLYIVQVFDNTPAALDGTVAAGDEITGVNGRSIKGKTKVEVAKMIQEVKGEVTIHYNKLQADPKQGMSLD

DLG2_2, Q15700 = target: DLG2_2, Q15700
Chain of DLG2_2, Q15700 (Q15700 189-283): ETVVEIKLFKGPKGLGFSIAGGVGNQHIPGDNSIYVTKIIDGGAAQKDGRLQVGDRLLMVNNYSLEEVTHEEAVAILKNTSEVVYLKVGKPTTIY

SCRIB_2, Q14160 = target: SCRIB_2, Q14160
Chain of SCRIB_2, Q14160 (Q14160 857-960): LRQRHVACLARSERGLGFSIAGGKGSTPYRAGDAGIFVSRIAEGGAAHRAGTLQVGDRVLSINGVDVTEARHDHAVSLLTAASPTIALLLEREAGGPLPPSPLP

NHERF4_2, Q86UT5 = target: NHERF4_2, Q86UT5
Chain of NHERF4_2, Q86UT5 (Q86UT5 220-308): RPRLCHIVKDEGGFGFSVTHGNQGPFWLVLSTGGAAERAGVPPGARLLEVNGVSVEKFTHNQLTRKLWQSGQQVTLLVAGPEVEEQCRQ

HTRA4, P83105 = target: T4, HTRA4, P83105
CARD11, Q9BXL7 = target: T5, CARD11, Q9BXL7
TJP3_3, O95049 = target: T6, TJP3_3, O95049
LNX1_3, Q8TBB1 = target: LNX1_3, Q8TBB1
Chain of LNX1_3, Q8TBB1 (Q8TBB1 500-596): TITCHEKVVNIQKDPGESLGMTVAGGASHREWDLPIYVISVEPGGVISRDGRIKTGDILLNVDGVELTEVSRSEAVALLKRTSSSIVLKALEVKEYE

MAGI2_4, Q86UL8 = target: MAGI2_4, Q86UL8
Chain of MAGI2_4, Q86UL8 (Q86UL8 772-865): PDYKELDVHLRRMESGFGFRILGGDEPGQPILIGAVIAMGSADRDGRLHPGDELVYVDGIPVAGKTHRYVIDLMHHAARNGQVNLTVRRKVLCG

LDB3, O75112 = target: LDB3, O75112
Chain of LDB3, O75112 (O75112 1-94): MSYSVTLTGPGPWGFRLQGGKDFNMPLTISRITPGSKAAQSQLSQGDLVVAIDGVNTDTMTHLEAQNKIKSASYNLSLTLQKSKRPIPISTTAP

NHERF3_4, Q5T2W1 = target: T7, NHERF3_4, Q5T2W1
GRIP2_3, Q9C0E4 = target: GRIP2_3, Q9C0E4
Chain of GRIP2_3, Q9C0E4 (Q9C0E4 238-339): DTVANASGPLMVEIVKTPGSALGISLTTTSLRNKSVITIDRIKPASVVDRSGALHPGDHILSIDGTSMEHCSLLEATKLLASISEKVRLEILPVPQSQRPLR

SNTA1, Q13424 = target: T8, SNTA1, Q13424
MAGI2_3, Q86UL8 = target: MAGI2_3, Q86UL8
Chain of MAGI2_3, Q86UL8 (Q86UL8 600-682): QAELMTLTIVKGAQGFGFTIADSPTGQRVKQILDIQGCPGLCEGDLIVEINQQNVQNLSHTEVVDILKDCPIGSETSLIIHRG

FRMPD2_1, Q68DX3 = target: FRMPD2_1, Q68DX3
Chain of FRMPD2_1, Q68DX3 (Q68DX3 770-861): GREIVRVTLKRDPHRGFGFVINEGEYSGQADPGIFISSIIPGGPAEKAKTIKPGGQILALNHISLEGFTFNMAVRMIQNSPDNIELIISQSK

GRIP1_2, Q9Y3R0 = target: T9, GRIP1_2, Q9Y3R0
Inadl_5, Q8NI35 = target: Inadl_5, Q8NI35
Chain of Inadl_5, Q8NI35 (Q8NI35 673-780): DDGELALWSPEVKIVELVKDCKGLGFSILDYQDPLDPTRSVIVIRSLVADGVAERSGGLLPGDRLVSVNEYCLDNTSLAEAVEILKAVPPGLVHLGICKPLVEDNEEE

GRIP2_4, Q9C0E4 = target: GRIP2_4, Q9C0E4
Chain of GRIP2_4, Q9C0E4 (Q9C0E4 446-548): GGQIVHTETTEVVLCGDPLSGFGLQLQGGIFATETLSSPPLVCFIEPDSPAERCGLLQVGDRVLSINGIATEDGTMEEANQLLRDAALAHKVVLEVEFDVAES

SNTG1, Q9NSN8 = target: T10, SNTG1, Q9NSN8

| Binder | pKd (MAGI2_5, Q86UL8) | pKd (NHERF3_3, Q5T2W1) | pKd (PDZD2_2, O15018) | pKd (SIPA1L2, Q9P2F8) | pKd (GOPC, Q9HD26) | pKd (HTRA1, Q92743) | pKd (MAST1, Q9Y2H9) | pKd (CASK, O14936) | pKd (PTPN3, P26045) | pKd (Inadl_6, Q8NI35) | pKd (PICK1, Q9NRD5) | pKd (DLG2_2, Q15700) | pKd (SCRIB_2, Q14160) | pKd (NHERF4_2, Q86UT5) | pKd (HTRA4, P83105) | pKd (CARD11, Q9BXL7) | pKd (TJP3_3, O95049) | pKd (LNX1_3, Q8TBB1) | pKd (MAGI2_4, Q86UL8) | pKd (LDB3, O75112) | further results |
| --- | --- | --- | --- | --- | --- | --- | --- | --- | --- | --- | --- | --- | --- | --- | --- | --- | --- | --- | --- | --- | --- |
| EFKQTSSFLV [JAM1, Q9Y624] | below the threshold | below the threshold | 3.72 | below the threshold | below the threshold | 5.15 | 3.56 | below the threshold | below the threshold | below the threshold | 4.27 | below the threshold | below the threshold | below the threshold | 4.05 | below the threshold | below the threshold | below the threshold | 4.3 | below the threshold | pKd (NHERF3_4, Q5T2W1): 3.51; pKd (GRIP2_3, Q9C0E4): below the threshold; pKd (SNTA1, Q13424): below the threshold; pKd (MAGI2_3, Q86UL8): 3.54; pKd (FRMPD2_1, Q68DX3): 3.75; pKd (GRIP1_2, Q9Y3R0): below the threshold; pKd (Inadl_5, Q8NI35): 3.53; pKd (GRIP2_4, Q9C0E4): below the threshold; pKd (SNTG1, Q9NSN8): below the threshold |
| SQPLLVHDDV [KIT, P10721] | below the threshold | below the threshold | 3.99 | below the threshold | below the threshold | below the threshold | below the threshold | below the threshold | below the threshold | below the threshold | 4.06 | below the threshold | below the threshold | below the threshold | 3.88 | below the threshold | below the threshold | below the threshold | below the threshold | below the threshold | pKd (NHERF3_4, Q5T2W1): below the threshold; pKd (GRIP2_3, Q9C0E4): below the threshold; pKd (SNTA1, Q13424): below the threshold; pKd (MAGI2_3, Q86UL8): below the threshold; pKd (FRMPD2_1, Q68DX3): below the threshold; pKd (GRIP1_2, Q9Y3R0): below the threshold; pKd (Inadl_5, Q8NI35): below the threshold; pKd (GRIP2_4, Q9C0E4): below the threshold; pKd (SNTG1, Q9NSN8): below the threshold |
| DFKHTKSFII [JAM2, P57087] | below the threshold | below the threshold | 3.87 | below the threshold | below the threshold | 4.97 | 3.7 | below the threshold | 3.81 | below the threshold | below the threshold | below the threshold | below the threshold | below the threshold | 3.79 | below the threshold | below the threshold | below the threshold | below the threshold | below the threshold | pKd (NHERF3_4, Q5T2W1): below the threshold; pKd (GRIP2_3, Q9C0E4): below the threshold; pKd (SNTA1, Q13424): below the threshold; pKd (MAGI2_3, Q86UL8): below the threshold; pKd (FRMPD2_1, Q68DX3): 3.55; pKd (GRIP1_2, Q9Y3R0): below the threshold; pKd (Inadl_5, Q8NI35): below the threshold; pKd (GRIP2_4, Q9C0E4): below the threshold; pKd (SNTG1, Q9NSN8): below the threshold |
